From patent US20190382500A1 (Novartis, published 2019)

T1: human recombinant (r)BCMA_Fc-AF647 (human, UniProt Q02223 1-54, AF647 fluorescent label (site not stated))
T1 construct: Staining reagent for CAR detection by flow cytometry; not shown: Fc part
T1 sequence (looked up): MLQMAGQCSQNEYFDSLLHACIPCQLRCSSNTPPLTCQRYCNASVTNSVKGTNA


Molecular target: T1, human recombinant (r)BCMA_Fc-AF647
Assay: flow cytometry, rBCMA_Fc-AF647 staining of CAR-transduced primary human T cells
Text: The following 8 CARs were chosen for analysis of CAR expression, stability and efficacy in primary T cells: R1B6, R1F2, RIGS, PI61, B61-10, B61-02, Hy03, and Hy52. BCMA CAR T cells were generated by starting with blood from healthy apheresed donors whose T cells (CD4+ and CD8+ lymphocytes) were obtained by negative selection for CD3+ T cells. These cells were activated by the addition of CD3/CD28 beads (Dynabeads® Human T-Expander CD3/CD28, Thermo Fisher Scientific) at a ratio of 1:3 (T cell to bead) in T cell medium (RPMI1640, 10% heat-inactivated fetal calf serum (FCS), 2 mM L-glutamine, 1× Penicillin/Streptomycin, 100 μM non-essential amino acids, 1 mM Sodium Pyruvate, 10 mM Hepes, and 55 μM 2-mercaptoethanol). T cells were cultured at 0.5×10⁶ T cells in 1 mL medium per well of a 24-well plate at 37° C., 5% CO₂. After 24 hours, when T cells were blasting, T cells were transduced with BCMA CAR virus at a multiplicity of infection (MOI) of 5. T cells began to divide in a logarithmic growth pattern, which was monitored by measuring the cell counts per mL, and T cells were diluted in fresh medium every two days and de-beaded and harvested for further analyses at day 9. Aliquots of T cells were stained to measure CAR expression by flow cytometry at day 5 and 9 on a FACS Fortessa (BD). All BCMA CAR T cells were produced under research grade (i.e., not clinical grade) manufacturing conditions.
The BCMA-CAR surface expression and its stability was assessed by measuring CAR % and MFI (mean fluorescence intensity) at day 5 and day 9 using flow cytometry analyses of rBCMA_Fc-AF647 stained cells (FIG. 2 and Table 17).

Binder	CAR % on T cells, Day 5 [%]	CAR % on T cells, Day 9 [%]	CAR MFI on T cells, Day 5 [MFI]	CAR MFI on T cells, Day 9 [MFI]
Hy52 BCMA CAR (other, Chimeric antigen receptor expressed on JNL cells or primary human T cells after lentiviral transduction) EVQLVESGGGLVKPGGSLRLSCAASGFTFSSFRMNWVRQAPGKGLEWVSSISSSSSYIYYADSVKGRFTISRDNAKNSLYLQMNSLRAEDTAVYYCARWLSYYGMDVWGQGTTVTVSSGGGGSGGGGSGGGGSGGGGSDIVMTQTPLSLPVTPGEPASISCRSSQSLLDSDDGNTYLDWYLQKPGQSPQLLIYTLSFRASGVPDRFSGSGSGTDFTLKIRRVEAEDVGVYYCMQRIGFPITFGQGTRLEIKTTTPAPRPPTPAPTIASQPLSLRPEACRPAAGGAVHTRGLDFACDIYIWAPLAGTCGVLLLSLVITLYCKRGRKKLLYIFKQPFMRPVQTTQEEDGCSCRFPEEEEGGCELRVKFSRSADAPAYQQGQNQLYNELNLGRREEYDVLDKRRGRDPEMGGKPRRKNPQEGLYNELQKDKMAEAYSEIGMKGERRRGKGHDGLYQGLSTATKDTYDALHMQALPPR	35.1	36.1	33700	2860
PI61 BCMA CAR (other, Chimeric antigen receptor expressed on JNL cells or primary human T cells after lentiviral transduction; also called P161) QVQLQESGGGVVQPGRSLRLSCAASGFTFSSYGMHWVRQAPGKGLEWVAVISYDGSNKYYADSVKGRFTISRDNSKNTLYLQMNSLRAEDTAVYYCGGSGYALHDDYYGLDVWGQGTLVTVSSGGGGSGGGGSGGGGSQSALTQPASVSGSPGQSITISCTGTSSDVGGYNYVSWYQQHPGKAPKLMIYDVSNRPSGVSNRFSGSKSGNTASLTISGLQAEDEADYYCSSYTSSSTLYVFGSGTKVTVLTTTPAPRPPTPAPTIASQPLSLRPEACRPAAGGAVHTRGLDFACDIYIWAPLAGTCGVLLLSLVITLYCKRGRKKLLYIFKQPFMRPVQTTQEEDGCSCRFPEEEEGGCELRVKFSRSADAPAYQQGQNQLYNELNLGRREEYDVLDKRRGRDPEMGGKPRRKNPQEGLYNELQKDKMAEAYSEIGMKGERRRGKGHDGLYQGLSTATKDTYDALHMQALPPR	47.4	42.3	24400	2100
B61-02 BCMA CAR (other, Chimeric antigen receptor expressed on JNL cells or primary human T cells after lentiviral transduction) QVQLVESGGGVVQPGRSLRLSCAASGFTFSSYGMHWVRQAPGKGLEWVAVISYKGSNKYYADSVKGRFTISRDNSKNTLYLQMNSLRAEDTAVYYCGGSGYALHDDYYGLDVWGQGTLVTVSSGGGGSGGGGSGGGGSGGGGSQSALTQPASVSGSPGQSITISCTGTSSDVGGYNYVSWYQQHPGKAPKLMIYEVSNRLRGVSNRFSGSKSGNTASLTISGLQAEDEADYYCSSYTSSSALYVFGSGTKVTVLTTTPAPRPPTPAPTIASQPLSLRPEACRPAAGGAVHTRGLDFACDIYIWAPLAGTCGVLLLSLVITLYCKRGRKKLLYIFKQPFMRPVQTTQEEDGCSCRFPEEEEGGCELRVKFSRSADAPAYQQGQNQLYNELNLGRREEYDVLDKRRGRDPEMGGKPRRKNPQEGLYNELQKDKMAEAYSEIGMKGERRRGKGHDGLYQGLSTATKDTYDALHMQALPPR	33.5	23.6	29100	3470
B61-10 BCMA CAR (other, Chimeric antigen receptor expressed on JNL cells or primary human T cells after lentiviral transduction) QVQLVESGGGVVQPGRSLRLSCAASGFTFSSYGMHWVRQAPGKGLEWVAVISYKGSNKYYADSVKGRFTISRDNSKNTLYLQMNSLRAEDTAVYYCGGSGYALHDDYYGLDVWGQGTLVTVSSGGGGSGGGGSGGGGSGGGGSQSALTQPASVSGSPGQSITISCTGTSSDVGGYNYVSWYQQHPGKAPKLMIYEVSNRLRGVSNRFSGSKSGNTASLTISGLQAEDEADYYCSSYTSSSTLYVFGSGTKVTVLTTTPAPRPPTPAPTIASQPLSLRPEACRPAAGGAVHTRGLDFACDIYIWAPLAGTCGVLLLSLVITLYCKRGRKKLLYIFKQPFMRPVQTTQEEDGCSCRFPEEEEGGCELRVKFSRSADAPAYQQGQNQLYNELNLGRREEYDVLDKRRGRDPEMGGKPRRKNPQEGLYNELQKDKMAEAYSEIGMKGERRRGKGHDGLYQGLSTATKDTYDALHMQALPPR	41.1	30.3	27300	3290
Hy03 BCMA CAR (other, Chimeric antigen receptor expressed on JNL cells or primary human T cells after lentiviral transduction) EVQLVESGGGLVQPGGSLRLSCAASGFTFSGFWMSWVRQAPGKGLEWVANIKQDGSEKYYVDSVRGRFTISRDNAKNSLYLQMNSLRAEDTAVYYCARALDYYGMDVWGQGTTVTVSSGGGGSGGGGSGGGGSGGGGSDIVMTQTPLSLPVTPGEPASISCRSSQSLLDSDDGNTYLDWYLQKPGQSPRLLIYTLSYRASGVPDRFSGSGSGTDFTLKISRVEAEDVGLYYCTQRLEFPSITFGQGTRLEIKTTTPAPRPPTPAPTIASQPLSLRPEACRPAAGGAVHTRGLDFACDIYIWAPLAGTCGVLLLSLVITLYCKRGRKKLLYIFKQPFMRPVQTTQEEDGCSCRFPEEEEGGCELRVKFSRSADAPAYQQGQNQLYNELNLGRREEYDVLDKRRGRDPEMGGKPRRKNPQEGLYNELQKDKMAEAYSEIGMKGERRRGKGHDGLYQGLSTATKDTYDALHMQALPPR	33.7	18.1	9460	929
